Laboratory results reported in patent US20220048967A1 (published 2022).

Key:
Assay in all cases: cell-based or functional assay
human glucagon receptor = human glucagon receptor (human, UniProt P47871 26-477)
human GLP-1 receptor = human GLP-1 receptor (human, UniProt P43220 24-463)
human GIP receptor = target: T1, human GIP receptor (human, UniProt P48546 22-466)
T1 sequence (looked up): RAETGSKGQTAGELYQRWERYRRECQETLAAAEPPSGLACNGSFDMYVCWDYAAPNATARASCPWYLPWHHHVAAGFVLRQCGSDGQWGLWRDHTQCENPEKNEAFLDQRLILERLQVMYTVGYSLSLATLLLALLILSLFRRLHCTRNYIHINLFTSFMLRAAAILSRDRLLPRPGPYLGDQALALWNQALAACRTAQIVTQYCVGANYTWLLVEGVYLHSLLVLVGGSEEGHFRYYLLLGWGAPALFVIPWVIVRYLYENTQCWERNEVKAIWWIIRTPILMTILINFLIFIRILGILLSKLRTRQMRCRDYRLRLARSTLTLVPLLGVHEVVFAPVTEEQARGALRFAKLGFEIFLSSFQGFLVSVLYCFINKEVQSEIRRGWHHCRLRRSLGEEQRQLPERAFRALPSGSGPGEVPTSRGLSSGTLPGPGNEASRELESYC

[1] = target: human GLP-1 receptor (GLP-1R) (human, UniProt P43220 24-463)
[2] = target: T2, human gastric inhibitory peptide receptor (GIPR) (human, UniProt P48546 22-466)
T2 sequence (looked up): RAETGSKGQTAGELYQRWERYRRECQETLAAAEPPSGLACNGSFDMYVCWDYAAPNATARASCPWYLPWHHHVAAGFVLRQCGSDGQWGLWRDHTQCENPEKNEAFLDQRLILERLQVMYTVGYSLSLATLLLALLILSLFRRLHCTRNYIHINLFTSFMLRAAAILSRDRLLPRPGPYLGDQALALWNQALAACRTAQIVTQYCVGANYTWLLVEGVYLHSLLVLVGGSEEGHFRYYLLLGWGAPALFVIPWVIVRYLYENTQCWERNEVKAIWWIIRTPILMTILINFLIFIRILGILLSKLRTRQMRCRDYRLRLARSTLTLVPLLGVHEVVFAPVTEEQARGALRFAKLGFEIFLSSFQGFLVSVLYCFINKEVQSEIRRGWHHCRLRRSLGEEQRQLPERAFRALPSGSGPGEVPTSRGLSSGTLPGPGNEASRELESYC
Wherever hGIPR cAMP EC50 ratio is given: reference of the scale not given here.
Wherever hGLP1R cAMP EC50 ratio is given: reference of the scale not given here.

Sequence of human glucagon receptor (P47871 26-477): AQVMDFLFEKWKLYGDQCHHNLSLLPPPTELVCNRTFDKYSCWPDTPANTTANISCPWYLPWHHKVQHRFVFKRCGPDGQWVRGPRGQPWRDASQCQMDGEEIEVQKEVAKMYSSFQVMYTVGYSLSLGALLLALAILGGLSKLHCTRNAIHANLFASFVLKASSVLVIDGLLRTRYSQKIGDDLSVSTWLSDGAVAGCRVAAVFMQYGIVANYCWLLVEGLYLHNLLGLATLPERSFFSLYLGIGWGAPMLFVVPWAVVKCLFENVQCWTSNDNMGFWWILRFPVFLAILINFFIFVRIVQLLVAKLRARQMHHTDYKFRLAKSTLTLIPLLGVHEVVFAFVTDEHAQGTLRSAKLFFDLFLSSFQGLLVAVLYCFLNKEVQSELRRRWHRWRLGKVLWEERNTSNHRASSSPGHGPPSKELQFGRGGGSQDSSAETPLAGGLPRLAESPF

Binder	cAMP EC50 (human glucagon receptor) [nM]	cAMP EC50 (human GLP-1 receptor) [nM]	cAMP EC50 (human GIP receptor) [nM]	hGLP1R cAMP EC50 ratio [1] [ratio]	hGLP1R cAMP Rel EC50 [1] [nM]	hGIPR cAMP EC50 ratio [2] [ratio]	hGIPR cAMP Rel EC50 [2] [nM]
YXEGTXTSDYSIXLDXKAQXEFIXYLIEGGPSSGAPPPS (Aib2; αMeF(2F)6; αMeL13; Orn16; K17((2-[2-(2-Amino-ethoxy)-ethoxy]-acetyl)2-(γ-Glu)-CO-(CH2)16-CO2H); Aib20; D-Glu24; C-terminal amide) [Example 2]	> 10900	6.52	2.64	–	–	–	–
YXEGTXTSDYSIXLDXKAQXEFIXYLIEGGPSSGAPPPS (Aib2; αMeF(2F)6; αMeL13; Orn16; K17((2-[2-(2-Amino-ethoxy)-ethoxy]-acetyl)2-(γ-Glu)-CO-(CH2)18-CO2H); Aib20; D-Glu24; C-terminal amide) [Example 3]	> 10900	19.4	9.24	–	–	–	–
YXEGTXTSDXSIXLDXKAQXEFIXXLIEGGPSSGAPPPS (Aib2; αMeF(2F)6; 4Pal10; αMeL13; Orn16; K17((2-[2-(2-Amino-ethoxy)-ethoxy]-acetyl)2-(γ-Glu)-CO-(CH2)16-CO2H); Aib20; D-Glu24; αMeY25; C-terminal amide) [Example 4]	> 10900	2.02	1.03	–	–	–	–
XXEGTFTSDYSIXLDKKAQXEFIEXLIAGGPSSGAPPPS (D-Tyr1; Aib2; αMeL13; K17 conjugated to (2-[2-(2-Amino-ethoxy)-ethoxy]-acetyl)2-(γ-Glu)-CO-(CH2)16-CO2H; Aib20; αMeY25; C-terminal amide) [Example 374]	–	–	–	0.169	0.19	1.76	0.0468
XXEGTFTSDYSIXLDXKAQXEFIEXLIAGGPSSGAPPPS (D-Tyr1; Aib2; αMeL13; Orn16; K17 conjugated to (2-[2-(2-Amino-ethoxy)-ethoxy]-acetyl)2-(γ-Glu)-CO-(CH2)16-CO2H; Aib20; αMeY25; C-terminal amide) [Example 375]	–	–	–	0.178	0.152	1.13	0.0471
XXEGTFTSDYSIXLDKKAQXAFIEXLIAGGPSSGAPPPS (D-Tyr1; Aib2; αMeL13; K17 conjugated to (2-[2-(2-Amino-ethoxy)-ethoxy]-acetyl)2-(γ-Glu)-CO-(CH2)16-CO2H; Aib20; αMeY25; C-terminal amide) [Example 376]	–	–	–	0.159	0.17	0.734	0.0723
XXEGTFTSDYSIXLDXKAQXAFIEXLIAGGPSSGAPPPS (D-Tyr1; Aib2; αMeL13; Orn16; K17 conjugated to (2-[2-(2-Amino-ethoxy)-ethoxy]-acetyl)2-(γ-Glu)-CO-(CH2)16-CO2H; Aib20; αMeY25; C-terminal amide) [Example 377]	–	–	–	0.199	0.136	0.976	0.0544
XXEGTFTSDYSIXLDKKAQXEFIEYLIAGGPSSGAPPPS (D-Tyr1; Aib2; αMeL13; K17 conjugated to (2-[2-(2-Amino-ethoxy)-ethoxy]-acetyl)-(γ-Glu)-CO-(CH2)18-CO2H; Aib20; C-terminal amide) [Example 378]	–	–	–	0.142	0.191	0.793	0.067
XXEGTFTSDYSIXLDKKAQXEFIEXLIEGGPSSGAPPPS (D-Tyr1; Aib2; αMeL13; K17 conjugated to (2-[2-(2-Amino-ethoxy)-ethoxy]-acetyl)2-(γ-Glu)-CO-(CH2)18-CO2H; Aib20; αMeY25; C-terminal amide) [Example 379]	–	–	–	0.114	0.238	0.672	0.079
XXEGTFTSDYSIXLDXKAQXEFIEXLIEGGPSSGAPPPS (D-Tyr1; Aib2; αMeL13; Orn16; K17 conjugated to (2-[2-(2-Amino-ethoxy)-ethoxy]-acetyl)2-(γ-Glu)-CO-(CH2)18-CO2H; Aib20; αMeY25; C-terminal amide) [Example 380]	–	–	–	0.115	0.236	0.374	0.142
YXEGTXTSDVSIXLDXKAQXEFIXXLIEGGPSSGAPPPS (Aib2; αMeF(2F)6; αMeL13; Orn16; K17((2-[2-(2-Amino-ethoxy)-ethoxy]-acetyl)2-(γ-Glu)-CO-(CH2)16-CO2H); Aib20; D-Glu24; αMeY25; C-terminal amide) [Example 5]	> 10900	1.61	1.98	–	–	–	–
YXEGTXTSDYSIXLDEKAQXEFIXYLIEGGPSSGAPPPS (Aib2; αMeF(2F)6; αMeL13; K17((2-[2-(2-Amino-ethoxy)-ethoxy]-acetyl)2-(γ-Glu)-CO-(CH2)18-CO2H); Aib20; D-Glu24; C-terminal amide) [Example 1]	> 11400	53.3	38.5	–	–	–	–
